These results are taken from PMC7352286, “The Heterooligomerization of Human Small Heat Shock Proteins Is Controlled by Conserved Motif Located in the N-Terminal Domain” (International Journal of Molecular Sciences, 2020).

By stoichiometry N is commonly meant the number of molecules, sites or subunits per partner or assembly.

Sequences and labels used below:
B1: HspB5 Δ21–25 (natural protein, human, UniProt P02511 1-175, looked up)
chain: MDIAIHHPWIRRPFFPFHSPQFFGEHLLESDLFPTSTSLSPFYLRPPSFLRAPSWFDTGLSEMRLEKDRFSVNLDVKHFSPEELKVKVLGDVIEVHGKHEERQDEHGFISREFHRKYRIPADVDPLTITSSLSSDGVLTVNGPRKQVSGPERTIPITREEKPAVTAAPKK
notes: also called Δ HspB5; Δ mutant of HspB5; source: E. coli BL21(DE3) pLysS, purified (ammonium sulfate, HiTrap Q, Superdex 200)
B2: HspB6 Δ26–30 (natural protein, human, UniProt O14558 1-160, looked up)
chain: MEIPVPVQPSWLRRASAPLPGLSAPQRFGEGLLEAELAALCPTTLAPYYLRAPSVALPVAQVPTDPGHFSVLLDVKHFSPEEIAVKVVGEHVEVHARHEERPDEHGFVAREFHRRYRLPPGVDPAAVTSALSPEGVLSIQAAPASAQAPPPAAAK
notes: also called Δ HspB6; Δ mutant of HspB6; source: E. coli BL21(DE3) pLysS, purified (ammonium sulfate, HiTrap Phenyl-Sepharose, Superdex 200)
B3: wild-type human small heat shock protein HspB6, O14558 1-160 (natural protein)
chain: MEIPVPVQPSWLRRASAPLPGLSAPGRLFDQRFGEGLLEAELAALCPTTLAPYYLRAPSVALPVAQVPTDPGHFSVLLDVKHFSPEEIAVKVVGEHVEVHARHEERPDEHGFVAREFHRRYRLPPGVDPAAVTSALSPEGVLSIQAAPASAQAPPPAAAK
B4: HspB6 R27A (natural protein, human, UniProt O14558 1-160, looked up)
chain: B3 chain with R27A
notes: also called R/A HspB6; R/A mutant of HspB6; source: E. coli BL21(DE3) pLysS, purified (ammonium sulfate, HiTrap Phenyl-Sepharose, Superdex 200)
B5: wild-type human small heat shock protein HspB5 (natural protein, UniProt P02511 1-175, looked up)
chain: MDIAIHHPWIRRPFFPFHSPSRLFDQFFGEHLLESDLFPTSTSLSPFYLRPPSFLRAPSWFDTGLSEMRLEKDRFSVNLDVKHFSPEELKVKVLGDVIEVHGKHEERQDEHGFISREFHRKYRIPADVDPLTITSSLSSDGVLTVNGPRKQVSGPERTIPITREEKPAVTAAPKK
notes: WT cDNA in pET22b or pET23a, parent of the full-size mutants; No tag is named; Forms large homooligomers; also called WT HspB5; source: E. coli BL21(DE3) pLysS, purified (ammonium sulfate, HiTrap Q, Superdex 200)
B6: HspB5 R22A (natural protein, human, UniProt P02511 1-175, looked up)
chain: B5 chain with R22A
notes: also called R/A HspB5; R/A mutant of HspB5; source: E. coli BL21(DE3) pLysS, purified (ammonium sulfate, HiTrap Q, Superdex 200)

Residue numbers refer to the chain shown, from its start.

The target in data set [1] is T1, wild-type human small heat shock protein HspB6 (human, UniProt O14558 1-160).
T1 construct: HspB6, human, UniProt O14558; WT cDNA in pET22b or pET23a, parent of the full-size mutants; No tag is named; also called WT HspB6; source: E. coli BL21(DE3) pLysS, purified (ammonium sulfate, HiTrap Phenyl-Sepharose, Superdex 200)
T1 sequence (looked up): B3 chain
Description: SEC; equimolar mixture (30–40 µM each), reduced, preincubated 1 h at 42 °C in buffer B (20 mM Tris-acetate, 150 mM NaCl, 0.1 mM EDTA, 15 mM mercaptoethanol); Superdex 200 HR 10/30; fractions on SDS gels; correlation coefficient and molar ratio from band intensities. Particulars: both partners purified.

Data set [2] concerns the molecule itself. Description: SEC; isolated protein on Superdex 200 HR 10/30 in buffer B; apparent molecular weight against standards. In general terms: In gel filtration, larger molecules generally elute earlier.
Data set [3] has as its target T2, wild-type human small heat shock protein HspB6 (human), O14558.
T2 chain: B3 chain
The data set is described as above. The settings on record: remark: other sources report otherwise.

The data set “HspB6 R27A” deals with B4. Description: SEC; equimolar mixture (30–40 µM each), reduced, preincubated 1 h at 42 °C in buffer B (20 mM Tris-acetate, 150 mM NaCl, 0.1 mM EDTA, 15 mM mercaptoethanol); Superdex 200 HR 10/30; fractions on SDS gels; correlation coefficient and molar ratio from band intensities. Particulars: both partners purified.
In the data set “HspB6 Δ26–30” the target is B2. The description is as above. Particulars: both partners purified.

B1: the correlation coefficient in data set [1] was determined as 0.98. Besides, the binding result in data set [2] was “binds”.

Turning to B2, the binding result in data set [2] is on record as “binds”.

In the case of B3, in data set [3], the stoichiometry N was 2.

With B4, the binding result in data set [2] is on record as “binds”.

As to B5, the figures for the correlation coefficient (with HspB6 R27A; with HspB6 Δ26–30; in data set [1]) were 0.99, 0.98 and 0.99, respectively. Besides, the “stoichiometry N” value in data set [1] is ~2 HspB5/HspB6 molar ratio. The binding result in data set [2] is “binds”.

As to B6, the correlation coefficient in data set [1] was determined as 0.99. The binding result in data set [2] is recorded as “binds”.
